Among the data in patent US20240092835A1, “NOVEL PEPTIDES CAPABLE OF ALTERING NK CELL ACTIVITY” (Massachusetts Institute of Technology, priority 2022, published 2024) are Kd values, retold here.

One experiment concerns the target CD94/NKG2A (UniProt Q13241). Nature of the experiment: SPR steady state, Biacore T200, pMHC single chain trimer immobilized, CD94/NKG2A analyte. (In general: In SPR one partner is held on a chip, and binding of the other changes the refractive index at the surface.)
A further experiment deals with CD94/NKG2C (UniProt Q13241). Nature of the experiment: SPR steady state, Biacore T200, pMHC single chain trimer immobilized, CD94/NKG2C analyte.

In general, Kd refers to a measure of binding affinity in units of concentration. As to “AKAP6388-396 peptide-HLA-E complex (single chain trimer) (from UniProt P61769 21-119; P13747 22-297) (peptide-MHC)”, the Kd is 4.1 µM in the experiment with CD94/NKG2A and 15.6 µM with CD94/NKG2C.
In the case of “BFAR263-271 peptide-HLA-E complex (single chain trimer) (from UniProt P61769 21-119; P13747 22-297) (peptide-MHC)”, the Kd in the experiment with CD94/NKG2A was found to be 0.8 µM; with CD94/NKG2C, 1.8 µM.
The corresponding values for “CREB3L1419-427 peptide-HLA-E complex (single chain trimer) (from UniProt P61769 21-119; P13747 22-297) (peptide-MHC)” are 3.3 µM and 9.8 µM.
With “GTF3C5293-301 peptide-HLA-E complex (single chain trimer) (from UniProt P61769 21-119; P13747 22-297) (peptide-MHC)”, the Kd with CD94/NKG2A was 28.1 µM; in the experiment with CD94/NKG2C, 92.4 µM.
Turning to “PISD55-63 peptide-HLA-E complex (single chain trimer) (from UniProt P61769 21-119; P13747 22-297) (peptide-MHC)”, the equilibrium dissociation constant (Kd) with CD94/NKG2A amounted to 12.1 µM; with CD94/NKG2C, 16 µM.
